Laboratory results reported in patent publication US20090029924A1.

Each substance was assayed against Recombinant human furin (human) (UniProt P09958) (assay: furin, Pyr-RTKR-AMC cleavage).
Recombinant human furin (human), sequence (P09958 108-714 limits assumed): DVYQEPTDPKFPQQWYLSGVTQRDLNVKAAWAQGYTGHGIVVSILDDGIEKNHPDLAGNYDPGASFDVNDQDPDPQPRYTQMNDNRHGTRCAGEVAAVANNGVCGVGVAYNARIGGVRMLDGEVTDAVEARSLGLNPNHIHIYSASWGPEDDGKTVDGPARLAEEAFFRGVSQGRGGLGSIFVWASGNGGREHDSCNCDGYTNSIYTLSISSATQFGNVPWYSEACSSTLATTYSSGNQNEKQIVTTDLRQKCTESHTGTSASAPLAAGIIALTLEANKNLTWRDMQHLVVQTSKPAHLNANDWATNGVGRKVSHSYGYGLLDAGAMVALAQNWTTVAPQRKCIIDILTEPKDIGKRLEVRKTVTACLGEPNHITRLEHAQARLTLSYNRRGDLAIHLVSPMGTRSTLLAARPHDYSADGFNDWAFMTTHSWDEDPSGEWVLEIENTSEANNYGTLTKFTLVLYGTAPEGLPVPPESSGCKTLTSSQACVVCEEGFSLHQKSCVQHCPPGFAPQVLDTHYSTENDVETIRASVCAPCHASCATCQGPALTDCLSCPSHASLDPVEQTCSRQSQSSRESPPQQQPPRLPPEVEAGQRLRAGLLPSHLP

Q: For TPQR4RRRKKRG (peptide), which Ki is on record?
A: > 100 nM

Q: With TPQR3RRRKKRG (peptide) as the substance, how does the Ki read?
A: > 100 nM

Q: TPQRrRRRKKRG (peptide) was tested. Which Ki did it give?
A: > 100 nM

Q: For TPQR1RRRKKRG (peptide), which Ki is on record?
A: > 100 nM

Q: How did the Ki turn out when TPQR5RRRKKRG (peptide) was run?
A: > 100 nM

Q: Which Ki does the source give for TPQR8RRRKKRG (peptide) here?
A: > 100 nM

Q: For TPQR6RRRKKRG (peptide), which Ki is on record?
A: > 100 nM

Q: For TPQR7RRRKKRG (peptide), which Ki is on record?
A: > 100 nM

Q: For TPQReRRRKKRG (peptide), which Ki is on record?
A: > 100 nM

Q: Which Ki does the source give for TPQRkRRRKKRG (peptide) here?
A: > 100 nM

Q: For TPQR2RRRKKRG (peptide), which Ki is on record?
A: > 100 nM
